Test system: hemagglutinin epitope-tagged Del301-303 human alpha-2B adrenergic receptor

In the case of GRK2 (βARK1), the “agonist-promoted phosphorylation relative to wild-type” value was “the Del301-303 receptor displayed -56% of wild-type phosphorylation” and the “basal phosphorylation of the receptor” value was “Basal phosphorylation was equivalent between the two receptors”.
